Source: patent publication US20250276075A1, “METHODS OF TREATING AXL-EXPRESSING CANCERS WITH ANTI-AXL ANTIBODIES, ANTIBODY FRAGMENTS AND THEIR IMMUNOCONJUGATES” (BIOATLA, INC., priority 2020, published 2025)
Entries after “also recorded” stand apart in the source; their conditions may differ.

Experiments:
cynomolgus monkey Axl = test: BA3011 binding to cynomolgus monkey Axl
mouse Axl = molecular target: T1, mouse Axl (Mus musculus, UniProt Q00993); test: BA3011 binding to mouse Axl
T1 sequence (Q00993 19-888): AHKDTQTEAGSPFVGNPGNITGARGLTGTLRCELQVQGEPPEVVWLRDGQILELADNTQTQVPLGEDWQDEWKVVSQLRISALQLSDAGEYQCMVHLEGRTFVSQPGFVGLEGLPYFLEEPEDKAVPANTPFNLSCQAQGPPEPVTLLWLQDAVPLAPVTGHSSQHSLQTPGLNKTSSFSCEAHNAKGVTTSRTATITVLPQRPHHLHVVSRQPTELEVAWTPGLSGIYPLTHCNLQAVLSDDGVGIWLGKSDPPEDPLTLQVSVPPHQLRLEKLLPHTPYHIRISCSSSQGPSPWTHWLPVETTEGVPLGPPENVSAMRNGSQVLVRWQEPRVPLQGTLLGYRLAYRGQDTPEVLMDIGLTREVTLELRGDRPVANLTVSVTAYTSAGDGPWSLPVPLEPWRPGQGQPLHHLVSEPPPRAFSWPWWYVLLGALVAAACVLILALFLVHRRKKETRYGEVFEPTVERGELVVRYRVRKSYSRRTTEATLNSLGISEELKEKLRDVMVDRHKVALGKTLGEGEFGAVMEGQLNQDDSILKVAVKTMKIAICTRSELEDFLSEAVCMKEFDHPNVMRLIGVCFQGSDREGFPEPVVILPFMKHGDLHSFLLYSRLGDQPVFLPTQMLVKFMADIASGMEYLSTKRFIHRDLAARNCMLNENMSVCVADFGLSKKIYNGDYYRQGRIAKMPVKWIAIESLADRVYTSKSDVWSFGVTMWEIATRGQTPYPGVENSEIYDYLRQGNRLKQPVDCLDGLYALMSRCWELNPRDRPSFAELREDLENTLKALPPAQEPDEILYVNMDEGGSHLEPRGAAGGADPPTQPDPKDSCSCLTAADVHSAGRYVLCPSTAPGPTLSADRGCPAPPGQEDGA

[1] = tested on: Axl expressing human cancer cell lines; test: BA3011 in vitro functional assays of cellular toxicity; assay type: cell-based
[2] = tested on: human tumor cell line derived xenograft tumors expressing Axl; test: BA3011 anti-tumor efficacy in xenograft mouse models; assay type: in vivo
Protocol: Tumor cell lines representing NSCLC (LCLC103H), prostate (DU145), and pancreatic tumor (MIAPaCa2) were tested in this in vivo mouse model system. Once tumors were established at a size of about 150 mm3, animals were treated with BA3011 at the indicated dose levels following the indicated schedule. BA3011 induced greater than 70% TGI in 4 out of 7 models tested, as shown on FIG. 17D.

[3] = BA3011 plasma exposure in monkey toxicology study; assay type: in vivo, cynomolgus monkey
Protocol: Based on the results at the 5 and 10 mg/kg/dose, the no-observed-adverse-effect-level (NOAEL) of BA3011 was considered to be 1 mg/kg/dose for both males and females. […] The highest non-severely toxic dose (HNSTD) was 5 mg/kg/dose, with C0 on Day 22 at 111 μg/mL and AUC0-inf at 2370 μg·h/mL.

[4] = Phase 1 clinical study of BA3011: pharmacokinetics; assay type: in vivo, human
Source text: • PK of BA3011: plasma concentrations of ADC, total antibody and MMAE, and PK parameters, including Cmax and AUC. • Efficacy (expansion cohorts only): ORR, disease control rate (DCR), time to response (TTR), duration of response (DOR), best objective response (OR), progression-free survival (PFS), overall survival (OS), and percent change from baseline in tumor size. • Immunogenicity of BA3011: the number and percentage of patients who develop detectable anti-drug antibodies (ADAs).
Sample collection timepoints for BA3011 PK, PD, and immunogenicity testing are presented in Table 18 (Phase 1) and Table 19 (Phase 2).
(§1) In Phase 1 (NCT03425279), BA3011 was administered once (Q3W) or twice (2Q3W) every 3 weeks via intravenous (IV) infusion.

advanced sarcoma = test: Phase 1 clinical study of BA3011: antitumor activity (RECIST v1.1, change in sum of target lesions); assay type: in vivo, human
Source text: The primary efficacy endpoint in Phase 2 is objective response (OR) per RECIST v1.1 using blinded independent central review (BICR). Objective response rate (ORR) is defined as the proportion of subjects with a best overall response of confirmed CR or confirmed PR that occur prior to the initiation of subsequent anticancer treatment. ORR will be estimated with a 95% CI using the exact probability method for each sarcoma subtype and overall in each of the 2 treatment groups (BA3011 alone and in combination with nivolumab). Other efficacy endpoints are duration of response (DOR), progression-free survival (PFS), best overall response (OR), disease control rate (DCR), time to response (TTR), progression-free rate (PFR) at 12 weeks, overall survival (OS), and percent change from baseline in target lesion sum of diameters. All efficacy endpoints except PFS and OS will be summarized primarily based on the full analysis set (FAS). PFS and OS will be summarized based on the As-Treated Population. Time-to-event data will be summarized using Kaplan-Meier estimates. Response rates and their confidence intervals will be estimated using the exact probability method. Graphical analyses will include spider and waterfall plots for the change and best change from baseline in tumor size, respectively.
Study BA3011-001 was an ongoing, multi-center, open-label, Phase 1/2 first-in-human trial of BA3011.
as §1

[5] = at the dose and schedules tested

B1: Mecbotamab vedotin (conjugate, chains of the INN, looked up)
VH: EVQLVQSGAEVKKPGATVKISCKVSGYSFWGATMNWIRQPPGKGLEWIGLIKPSNGGTSYNQKFKGRVTISADKSISTAYLQWSSLKASDTAMYYCAHGHYESYEAMDYWGQGTLVTVSS
VL: DIQMTQSPSSLSASVGDRVTITCKASQDVVSAVAWYQQKPGQAPRLLIYWQDTRHTGVPSRFSGSGSGTEFTLTISSLQPDDFATYYCQEHFSPPLTFGQGTKVEIK
modifications: MC-vc-PAB-MMAE conjugate
cross-reactivity to the cynomolgus Axl protein (cynomolgus monkey Axl): cross-reacted
binding to cynomolgus monkey Axl (cynomolgus monkey Axl; conditions mimicking the TME (pH 6.0-7.0)): high affinity and specificity
binding to cynomolgus monkey Axl (cynomolgus monkey Axl; conditions mimicking the normal tissue environment (pH 7.3-7.4)): reduced binding
binding to mouse Axl (mouse Axl): not mouse or rat Axl; also recorded: lacked binding to the rodent enzyme
cytotoxicity ([1]; normal conditions): reduced cytotoxicity
cellular toxicity ([1]; tumor conditions): induce cellular toxicity
body weight loss [2, 5]: did not induce body weight loss
clinical signs of toxicity [2, 5]: no other clinical signs of toxicity were noted
tumor growth inhibition (TGI) relative to control ([2]; in 4 out of 7 models tested): greater than 70%
area under the concentration versus time curve (AUC)0-inf ([3]; 1 mg/kg/dose, Day 22): 376 µg·h/mL
group mean maximum plasma exposure (C0) ([3]; 1 mg/kg/dose, Day 22): 20.0 µg/mL
AUC0-inf ([3]; 5 mg/kg/dose (HNSTD)): 2370 µg·h/mL
C0 ([3]; 5 mg/kg/dose (HNSTD), Day 22): 111 µg/mL
PK profile [4]: approximately dose proportional
half-life [4]: approximately 4 days
antitumor activity in sarcoma patients (advanced sarcoma; Phase 1): correlated with higher levels of AXL tumor membrane expression; also recorded: evidence of antitumor activity was observed
confirmed partial responses (advanced sarcoma; of 7 treatment refractory sarcoma patients with baseline TmPS≥70 dosed at 1.8 mg/kg (Q3w or 2Q3w)): 4
duration of response to therapy (advanced sarcoma; sarcoma patients, FIG. 24): Prolonged response to therapy
